Source: patent publication US20250092112A1 (HEMOGENYX PHARMACEUTICALS, published 2025)

Molecular target: T1, SARS-CoV-2 Spike protein (wild-type), biotinylated (MyBioSource) (SARS-CoV-2, UniProt P0DTC2 16-1213)
T1 construct: also called WT SARS-CoV-2 Spike; wild-type Spike
Test: binding of spike to ACE2-fragment constructs; assay not described

B1: CAR-based construct 1: CD8 signal peptide+ACE2 (19-358)+CD8 hinge+CD8 TM domain+CD3ζ intracellular domain (receptor)
chain: not shown
notes: domain: CD8 hinge;domain: CD8 TM domain;domain: CD3ζ intracellular domain
- binding result: no binding

B2: CAR-based construct 2: CD8 signal peptide+ACE2 (19-605)+CD8 hinge+CD8 TM domain+CD3ζ intracellular domain (receptor)
chain: not shown
notes: as for B1
- binding result: no binding
